Results: patent publication US20170189524A1 (IMMUNOQURE, published 2017)
Blank lines part the entries; values can stand above or below the binder they belong to.

B2: recombinant human IL-20 (ligand, UniProt Q9NYY1 25-176, looked up)
chain: LKTLNLGSCVIATNLQEIRNGFSEIRGSVQAKDGNIDIRILRRTESLQDTKPANRCCLLRHLLRLYLDRVFKNYQTPDHYTLRKISSLANSFLTIKKDLRLCHAHMTCHCGEEAMKKYSQILSHFEKLEPQAAVVKALGELDILLQWMEETE
notes: also called rhIL-20; hIL-20
B8: recombinant mouse IL-20 (ligand, UniProt Q9JKV9 25-176, looked up)
chain: LKTLHLGSCVITANLQAIQKEFSEIRDSVQAEDTNIDIRILRTTESLKDIKSLDRCCFLRHLVRFYLDRVFKVYQTPDHHTLRKISSLANSFLIIKKDLSVCHSHMACHCGEEAMEKYNQILSHFIELELQAAVVKALGELGILLRWMEEML
notes: also called rmIL-20; murine IL-20

Legend:
[1] = biological target: T1, peptide 20 of human IL-20, 101-PDHYTLRKISSLANSFLT-118 (human); experiment: 18mer peptide microarray of human IL-20, Cy5 anti-human IgG detection
T1 construct: spotted on a glass microarray through a hydrophilic linker; also called human IL-20 101-118-peptide
T1 peptide: PDHYTLRKISSLANSFLT

[2] = biological target: B2; experiment: cell-based or functional assay
[3] = biological target: B8; experiment: cell-based or functional assay
[4] = biological target: T2, g1 IL-20 (fusion protein of human IL-20 with Gaussia luciferase at the IL-20 N-terminus) (human, UniProt Q9NYY1 25-176); experiment: chemiluminescent cell-binding assay (FIG. 8D): inhibition of g1 IL-20 binding to HEK 293T MSR cells expressing IL-20 receptor; receptor type for this value not stated
T2 construct: also called IL-20-Gaussia luciferase fusion protein; GLuc-IL-20; not shown: Gaussia luciferase (pGaussia1 vector)
T2 sequence (looked up): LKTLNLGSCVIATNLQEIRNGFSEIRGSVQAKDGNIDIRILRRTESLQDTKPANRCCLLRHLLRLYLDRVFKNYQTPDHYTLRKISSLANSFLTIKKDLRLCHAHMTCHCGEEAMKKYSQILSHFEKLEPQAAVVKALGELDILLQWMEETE

[5] = biological target: T2, g1 IL-20 (fusion protein of human IL-20 …); experiment: GLuc-sandwich ELISA, fusion protein captured by anti-GLuc antibody, serial dilution of MAB
[6] = biological target: T3, g2 IL-20 (fusion protein of human IL-20 fused C-terminally to Gaussia luciferase) (human, UniProt Q9NYY1 25-176); experiment: as above
T3 construct: order of the parts inferred from 'fused; C-terminally (g2 IL-20) to Gaussia luciferase'; the wording is ambiguous; also called GLuc-IL-20; not shown: Gaussia luciferase
T3 sequence (looked up): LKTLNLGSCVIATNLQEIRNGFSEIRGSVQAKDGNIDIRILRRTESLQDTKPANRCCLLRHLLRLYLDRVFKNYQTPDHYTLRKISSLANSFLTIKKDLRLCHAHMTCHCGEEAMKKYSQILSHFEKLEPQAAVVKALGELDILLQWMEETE

[7] = biological target: T4, corresponding 18mer peptide derived from mouse IL-20 (differs from the human IL-20 101-118-peptide at Y104H … (mouse)); experiment: 18mer peptide microarray of murine IL-20
T4 construct: also called corresponding peptide derived from mouse IL-20
T4 peptide: PDHHTLRKISSLANSFLI

[8] = biological target: T5, peptide 19 of human IL-20, NYQTPDHYTLRKISSLAN (human); experiment: 18mer peptide microarray of human IL-20
T5 construct: spotted on a glass microarray through a hydrophilic linker
T5 peptide: NYQTPDHYTLRKISSLAN

[9] = biological target: T6, Type I IL-20 receptor (IL-20RA/IL-20RB) on transfected HEK 293T MSR cells (human, UniProt Q9UHF4 30-553; Q6UXL0 30-311); experiment: LCBA, competition with g1 IL-20 on cells expressing Type I IL-20 receptor
T6 construct: whole, on cells; also called IL-20 receptor Type I; IL20RA-Myc-DDK and IL20RB-Myc-DDK; not shown: Myc-DDK tag
T6 sequence (looked up) 1: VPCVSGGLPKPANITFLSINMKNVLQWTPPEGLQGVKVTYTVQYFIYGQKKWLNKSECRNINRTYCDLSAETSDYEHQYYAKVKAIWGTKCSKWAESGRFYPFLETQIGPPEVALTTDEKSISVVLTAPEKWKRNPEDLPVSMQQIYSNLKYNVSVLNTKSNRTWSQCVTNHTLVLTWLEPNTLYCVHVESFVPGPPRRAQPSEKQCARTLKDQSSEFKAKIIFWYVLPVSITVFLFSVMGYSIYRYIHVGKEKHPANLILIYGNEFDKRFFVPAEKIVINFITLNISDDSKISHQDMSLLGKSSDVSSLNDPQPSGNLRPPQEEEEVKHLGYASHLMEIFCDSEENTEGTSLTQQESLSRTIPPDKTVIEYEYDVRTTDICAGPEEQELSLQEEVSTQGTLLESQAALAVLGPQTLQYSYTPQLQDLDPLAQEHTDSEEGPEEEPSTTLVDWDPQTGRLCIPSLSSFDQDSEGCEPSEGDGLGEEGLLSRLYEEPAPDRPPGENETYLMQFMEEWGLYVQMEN
T6 sequence (looked up) 2: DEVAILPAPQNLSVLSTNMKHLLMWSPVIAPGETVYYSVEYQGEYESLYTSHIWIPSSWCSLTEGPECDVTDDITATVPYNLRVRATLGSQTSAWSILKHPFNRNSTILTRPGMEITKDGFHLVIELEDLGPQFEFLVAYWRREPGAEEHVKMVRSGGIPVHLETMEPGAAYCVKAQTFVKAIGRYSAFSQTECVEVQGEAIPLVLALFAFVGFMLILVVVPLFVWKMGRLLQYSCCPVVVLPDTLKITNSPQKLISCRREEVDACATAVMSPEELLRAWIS

[10] = biological target: T7, g1 IFNW (fusion protein of human IFNW with Gaussia luciferase) (human, UniProt P05000 22-195); experiment: LCBA cross-competition, g1 IFNW preincubated with soluble antibody (FIG. 18)
T7 construct: also called IFNW-Gaussia luciferase; human IFNW-Gaussia luciferase fusion protein; not shown: Gaussia luciferase
T7 sequence (P05000 22-195): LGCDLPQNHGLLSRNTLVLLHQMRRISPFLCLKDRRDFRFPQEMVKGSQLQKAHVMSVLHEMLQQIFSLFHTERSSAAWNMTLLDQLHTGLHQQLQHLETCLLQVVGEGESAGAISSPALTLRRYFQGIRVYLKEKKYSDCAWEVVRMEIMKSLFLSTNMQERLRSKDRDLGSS

[11] = biological target: T2, g1 IL-20 (fusion protein of human IL-20 …); experiment: GLuc-sandwich ELISA
[12] = biological target: B8; experiment: competition GLuc-sandwich ELISA: soluble mouse IL-20 titrated against antibody 1 µg/ml on captured g2 IL-20
[13] = biological target: T6, Type I IL-20 receptor (IL-20RA/IL-20RB) …; experiment: LCBA, competition with g1 IL-20 (FIG. 7E)

B1: antibody 20A10 (antibody, human IgG4, kappa, V domains shown)
VH: QVQLVQSGAEVKKPGSSVKVSCKTSGGTFSTSTLSWVRQAPGQGLEWLGGMIPILSRTTYAQKFQGRLTITADEPTSTSYMELSSLKSEDTAVYYCATEGEVSAAHNYYYGMDVWGQGTTVTVSS
VL: DIVLTQSPLYLPVTPGEPASISCRSSQSLLHGNGHNYLDWYLQKPGQSPQLLIYLGSNRASGVPDRFSGSGSGTDFTLKISRVEAEDVGVYYCMQTLHTVFTFGPGTRVDIKR
notes: Recombinant human-derived antibody; also called MAb 20A10; 20A0
binding result [1]: binds
IC 50 in the KZ136-NLuc reporter assay [2]: 0.33 µg/mL
IC 50 in the pSTAT3 Western blot assay (25 ng/ml rmIL-20, Type I IL-20 receptor) [3]: 1870 ng/ml
IC50 [4]: 0.00403 µg/mL
EC50 [5]: 0.0186 µg/mL
EC50 [6]: 0.021 µg/mL
binding result [7]: no binding
binding result [8]: no binding

Binder: B2
binding result [9]: binds

B6: antibody 6E11 (antibody, IgG1, V domains shown)
VH: QVQLVQSGAEVKKPGSSVKVSCKASGGTFRNYAINWVRQAPRQGLEWMGSLVPMFTSPTYAQKFRGRVTISADESTATSSMELTSLTSEDTAVYFCSADGYKGGLFYGMNVWGQGTTVTVSS
VL: DIVLTQSPESLAVSLGERATINCKSSQSVLYSSNSKNYLAWFQQKPGQPPKLLIYWASTRESGVPDRFSGSGSGTDFTLTITSLQAEDVAVYYCHQYHTLPRTFGHGTKVEIKR
notes: IgG1; also called MAb 6E11
binding result [12]: no binding (tested: 10 µg/ml to 4.6 ng/ml)
EC50 [5]: 0.128 µg/mL
EC50 [6]: 0.347 µg/mL

B7: antibody 2A11 (antibody, IgG1, V domains shown)
VH: QVHLVQSGAEVKKPGSSVKVSCKASGGTFNNFPMSWVRQAPGRGLEWMAGIIPVFGSANYAQQFHGRVTISADISTSTVSMELNDLKSEDTGVYYCAISGDEDNWIMNFWGQGTLVTVSS
VL: QSLLTQPPSVSGAPGQRVTISCTGSSSNIGAGYDVHWYQQVPGTAPKLLIYGNRNRPSGVPDRFSGSKSGTSASLAITGLQAEDEADYYCQSYDSSLSGHAVFGGGTKVTVLR
notes: IgG1, lambda; also called MAb 2A11
EC50 [5]: 0.0098 µg/mL
EC50 [6]: 0.0065 µg/mL

Binder: B8
binding result [13]: binds

The remaining lines, values ahead:

binding result [10]: binds
B3: antibody 26B9 (soluble) (antibody, human IgG1, kappa, V domains shown)
VH: QILLQESGPGLVKPTETLSLTCSVSGDSISDSSHYWAWIRQPPGKGPEWIGSVYFSSMTHYNPSLKSRVSISVDKPKNQFSLKVTSVTVADTATYYCARQALARVGAMNWFDPWGQGSLVTVSS
VL: DIIMTQSPDSLPVSLGEGVTINCKSSQSVFFTSSNKSCLAWYQQKPGKSPKLLIYWASTRQSGVPDRFRGSGSGTDFSLTITSLQAEDVAVYFCQQCQTSPPTFGGGTRLEIKR
notes: IgG1, kappa; also called soluble 26B9

binding result [10]: binds
B4: antibody 31B4 (antibody, human IgG1, kappa, V domains shown)
VH: QIQLQESGPGLVRPTETLSLTCSVSGDSISQSSHYWAWIRQPPGKGPEWIGSVYFSSMTHYNPSLTSRVSISIDKAMNKFSLKVTSVTVADTATYYCARQALARVGAMNWFDPWGQGSLVTVSS
VL: DIIMTQSPESLPVSLGEGVTINCKSSQSVFFTSSNRSCLAWYQQKPGQSPKLLIYWASTRQSGVPDRFTGSGSGTDFSLTIAGLQVEDVAVYFCQQCHASPPTFGGGTRLELRR
notes: IgG1, kappa; clonally related to 26B9

EC50 [5]: 5.87 µg/mL
EC50 [6]: 0.0271 µg/mL
EC50 [11]: > 5 µg/mL
B5: antibody 7D1 (antibody, human IgG1, lambda, V domains shown)
VH: EVQLVASGGDFIQPGRSLRLSCAASGFKFDDYAMFWVRQVPGRGLEWVSGISWSSDKMAYVDSVKGRFTISRDNAKNTLYLQMNNLRPDDTAFYYCAKGGFSSVWNYFDFWGQGTLVTVSS
VL: QSVLTQPPSASGTPGQTVIISCSGTTSNIGSNTVSWYRQLPGAAPKLLIFTYNQRPSGVPDRFSGSKSGTSASLAISGLQSDDEADYYCAVWDDALGGWVFGGGTKLTVLG
notes: IgG1, lambda; also called MAb 7D1
